This passage reports EC50 [nM], 0% HSA and EC50 [nM], 0.1% HSA results from patent publication US12679878B2, “CRF2 receptor agonists and their use in therapy” (SANOFI, priority 2020, dated 2026).

For this assay, the target named is human corticotropin-releasing factor 2α (CRF2 α receptor) (human), Q13324. As to the kind of experiment: cell-based or functional assay.

Starred links: 1 amine or outer side, 2 acyl side, 3 side chain; linkers in the order of their positions; H or OH if unused. Non-standard residues stand in square brackets, D forms with d. Groups on a side chain read outwards from the residue. No end group written: not given here. *: point of attachment. C20 diacid = O=C(O)CCCCCCCCCCCCCCCCCCC(=O)*; C18 diacid = O=C(O)CCCCCCCCCCCCCCCCC(=O)*; C16 diacid = O=C(O)CCCCCCCCCCCCCCC(=O)*; γGlu = O=C(O)[C@H](CCC(=O)[*:2])N[*:1]; Palmitoyl = CCCCCCCCCCCCCCCC(=O)*; AEEA = NCCOCCOCC(=O)O; Aib = CC(C)(N)C(=O)O

human corticotropin-releasing factor 2α (CRF2 α receptor) (human), Q13324, sequence (Q13324 20-411): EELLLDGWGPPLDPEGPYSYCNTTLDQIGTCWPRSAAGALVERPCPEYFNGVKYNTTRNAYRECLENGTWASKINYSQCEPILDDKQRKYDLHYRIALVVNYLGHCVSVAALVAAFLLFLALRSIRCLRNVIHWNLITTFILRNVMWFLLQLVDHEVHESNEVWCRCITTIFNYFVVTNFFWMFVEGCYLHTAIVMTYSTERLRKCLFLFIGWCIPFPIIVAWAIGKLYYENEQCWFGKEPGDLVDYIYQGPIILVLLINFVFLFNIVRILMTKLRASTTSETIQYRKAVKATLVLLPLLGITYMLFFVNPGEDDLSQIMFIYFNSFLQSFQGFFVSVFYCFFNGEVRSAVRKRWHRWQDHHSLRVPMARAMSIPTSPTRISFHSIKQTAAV

B1: SEQ ID NO: 183 (peptide)
peptide: IVLSLD[dV]PIKLK(C18 diacid)QILLKQARQK[Aib]QRAQAEKNKRILERV-NH2
modifications: N-terminus assumed
SMILES: CC[C@H](C)[C@H](N)C(=O)N[C@H](C(=O)N[C@@H](CC(C)C)C(=O)N[C@@H](CO)C(=O)N[C@@H](CC(C)C)C(=O)N[C@@H](CC(=O)O)C(=O)N[C@@H](C(=O)N1CCC[C@H]1C(=O)N[C@H](C(=O)N[C@@H](CCCCN)C(=O)N[C@@H](CC(C)C)C(=O)N[C@@H](CCCCNC(=O)CCCCCCCCCCCCCCCCC(=O)O)C(=O)N[C@@H](CCC(N)=O)C(=O)N[C@H](C(=O)N[C@@H](CC(C)C)C(=O)N[C@@H](CC(C)C)C(=O)N[C@@H](CCCCN)C(=O)N[C@@H](CCC(N)=O)C(=O)N[C@@H](C)C(=O)N[C@@H](CCCNC(=N)N)C(=O)N[C@@H](CCC(N)=O)C(=O)N[C@@H](CCCCN)C(=O)NC(C)(C)C(=O)N[C@@H](CCC(N)=O)C(=O)N[C@@H](CCCNC(=N)N)C(=O)N[C@@H](C)C(=O)N[C@@H](CCC(N)=O)C(=O)N[C@@H](C)C(=O)N[C@@H](CCC(=O)O)C(=O)N[C@@H](CCCCN)C(=O)N[C@@H](CC(N)=O)C(=O)N[C@@H](CCCCN)C(=O)N[C@@H](CCCNC(=N)N)C(=O)N[C@H](C(=O)N[C@@H](CC(C)C)C(=O)N[C@@H](CCC(=O)O)C(=O)N[C@@H](CCCNC(=N)N)C(=O)N[C@H](C(N)=O)C(C)C)[C@@H](C)CC)[C@@H](C)CC)[C@@H](C)CC)C(C)C)C(C)C
As to B1, the EC50 [nM], 0% HSA was found to be 0.12 nM and the EC50 [nM], 0.1% HSA came to 1.58 nM.

B2: SEQ ID NO: 184 (peptide)
peptide: IVLSLD[dV]PIKLK(C18 diacid)QILLKQERQKKQRQQAEKNKQILAQV-NH2
modifications: N-terminus assumed
SMILES: CC[C@H](C)[C@H](N)C(=O)N[C@H](C(=O)N[C@@H](CC(C)C)C(=O)N[C@@H](CO)C(=O)N[C@@H](CC(C)C)C(=O)N[C@@H](CC(=O)O)C(=O)N[C@@H](C(=O)N1CCC[C@H]1C(=O)N[C@H](C(=O)N[C@@H](CCCCN)C(=O)N[C@@H](CC(C)C)C(=O)N[C@@H](CCCCNC(=O)CCCCCCCCCCCCCCCCC(=O)O)C(=O)N[C@@H](CCC(N)=O)C(=O)N[C@H](C(=O)N[C@@H](CC(C)C)C(=O)N[C@@H](CC(C)C)C(=O)N[C@@H](CCCCN)C(=O)N[C@@H](CCC(N)=O)C(=O)N[C@@H](CCC(=O)O)C(=O)N[C@@H](CCCNC(=N)N)C(=O)N[C@@H](CCC(N)=O)C(=O)N[C@@H](CCCCN)C(=O)N[C@@H](CCCCN)C(=O)N[C@@H](CCC(N)=O)C(=O)N[C@@H](CCCNC(=N)N)C(=O)N[C@@H](CCC(N)=O)C(=O)N[C@@H](CCC(N)=O)C(=O)N[C@@H](C)C(=O)N[C@@H](CCC(=O)O)C(=O)N[C@@H](CCCCN)C(=O)N[C@@H](CC(N)=O)C(=O)N[C@@H](CCCCN)C(=O)N[C@@H](CCC(N)=O)C(=O)N[C@H](C(=O)N[C@@H](CC(C)C)C(=O)N[C@@H](C)C(=O)N[C@@H](CCC(N)=O)C(=O)N[C@H](C(N)=O)C(C)C)[C@@H](C)CC)[C@@H](C)CC)[C@@H](C)CC)C(C)C)C(C)C
In the case of B2, the EC50 [nM], 0% HSA was found to be 0.05 nM and the EC50 [nM], 0.1% HSA was 2.83 nM.

B3: SEQ ID NO: 23 (peptide)
peptide: IVLSLD[dV]PTKLK([γGlu-Palmitoyl])QKLLKQERQRKER[Aib]QAEKNKRILERV-NH2
modifications: N-terminus assumed
SMILES: CCCCCCCCCCCCCCCC(=O)N[C@@H](CCC(=O)NCCCC[C@H](NC(=O)[C@H](CC(C)C)NC(=O)[C@H](CCCCN)NC(=O)[C@@H](NC(=O)[C@@H]1CCCN1C(=O)[C@H](NC(=O)[C@H](CC(=O)O)NC(=O)[C@H](CC(C)C)NC(=O)[C@H](CO)NC(=O)[C@H](CC(C)C)NC(=O)[C@@H](NC(=O)[C@@H](N)[C@@H](C)CC)C(C)C)C(C)C)[C@@H](C)O)C(=O)N[C@@H](CCC(N)=O)C(=O)N[C@@H](CCCCN)C(=O)N[C@@H](CC(C)C)C(=O)N[C@@H](CC(C)C)C(=O)N[C@@H](CCCCN)C(=O)N[C@@H](CCC(N)=O)C(=O)N[C@@H](CCC(=O)O)C(=O)N[C@@H](CCCNC(=N)N)C(=O)N[C@@H](CCC(N)=O)C(=O)N[C@@H](CCCNC(=N)N)C(=O)N[C@@H](CCCCN)C(=O)N[C@@H](CCC(=O)O)C(=O)N[C@@H](CCCNC(=N)N)C(=O)NC(C)(C)C(=O)N[C@@H](CCC(N)=O)C(=O)N[C@@H](C)C(=O)N[C@@H](CCC(=O)O)C(=O)N[C@@H](CCCCN)C(=O)N[C@@H](CC(N)=O)C(=O)N[C@@H](CCCCN)C(=O)N[C@@H](CCCNC(=N)N)C(=O)N[C@H](C(=O)N[C@@H](CC(C)C)C(=O)N[C@@H](CCC(=O)O)C(=O)N[C@@H](CCCNC(=N)N)C(=O)N[C@H](C(N)=O)C(C)C)[C@@H](C)CC)C(=O)O
As for B3, the EC50 [nM], 0% HSA amounted to 0.02 nM. Same read-out and setting: to IVLSLD[dV]PTKLK([AEEA-AEEA-γGlu-C20 diacid])KKLLKQERKR[Aib]EREKAEKAARILERV-NH2 [SEQ ID NO: 224] belongs 6.85 nM.

B4: SEQ ID NO: 182 (peptide)
peptide: IVLSLD[dV]PIKLK(C18 diacid)QILLKQERQK[Aib]QREQAEKNKQILAQV-NH2
modifications: N-terminus assumed
SMILES: CC[C@H](C)[C@H](N)C(=O)N[C@H](C(=O)N[C@@H](CC(C)C)C(=O)N[C@@H](CO)C(=O)N[C@@H](CC(C)C)C(=O)N[C@@H](CC(=O)O)C(=O)N[C@@H](C(=O)N1CCC[C@H]1C(=O)N[C@H](C(=O)N[C@@H](CCCCN)C(=O)N[C@@H](CC(C)C)C(=O)N[C@@H](CCCCNC(=O)CCCCCCCCCCCCCCCCC(=O)O)C(=O)N[C@@H](CCC(N)=O)C(=O)N[C@H](C(=O)N[C@@H](CC(C)C)C(=O)N[C@@H](CC(C)C)C(=O)N[C@@H](CCCCN)C(=O)N[C@@H](CCC(N)=O)C(=O)N[C@@H](CCC(=O)O)C(=O)N[C@@H](CCCNC(=N)N)C(=O)N[C@@H](CCC(N)=O)C(=O)N[C@@H](CCCCN)C(=O)NC(C)(C)C(=O)N[C@@H](CCC(N)=O)C(=O)N[C@@H](CCCNC(=N)N)C(=O)N[C@@H](CCC(=O)O)C(=O)N[C@@H](CCC(N)=O)C(=O)N[C@@H](C)C(=O)N[C@@H](CCC(=O)O)C(=O)N[C@@H](CCCCN)C(=O)N[C@@H](CC(N)=O)C(=O)N[C@@H](CCCCN)C(=O)N[C@@H](CCC(N)=O)C(=O)N[C@H](C(=O)N[C@@H](CC(C)C)C(=O)N[C@@H](C)C(=O)N[C@@H](CCC(N)=O)C(=O)N[C@H](C(N)=O)C(C)C)[C@@H](C)CC)[C@@H](C)CC)[C@@H](C)CC)C(C)C)C(C)C
In the case of B4, the EC50 [nM], 0% HSA was found to be 0.03 nM and the EC50 [nM], 0.1% HSA turned out to be 3.13 nM.

B5: SEQ ID NO: 222 (peptide)
peptide: IVLSLD[dV]PTKLK([γGlu-C16 diacid])QKLLKQERQRKEREQAEKNVRILERV-NH2
modifications: N-terminus assumed
SMILES: CC[C@H](C)[C@H](N)C(=O)N[C@H](C(=O)N[C@@H](CC(C)C)C(=O)N[C@@H](CO)C(=O)N[C@@H](CC(C)C)C(=O)N[C@@H](CC(=O)O)C(=O)N[C@@H](C(=O)N1CCC[C@H]1C(=O)N[C@H](C(=O)N[C@@H](CCCCN)C(=O)N[C@@H](CC(C)C)C(=O)N[C@@H](CCCCNC(=O)CC[C@H](NC(=O)CCCCCCCCCCCCCCC(=O)O)C(=O)O)C(=O)N[C@@H](CCC(N)=O)C(=O)N[C@@H](CCCCN)C(=O)N[C@@H](CC(C)C)C(=O)N[C@@H](CC(C)C)C(=O)N[C@@H](CCCCN)C(=O)N[C@@H](CCC(N)=O)C(=O)N[C@@H](CCC(=O)O)C(=O)N[C@@H](CCCNC(=N)N)C(=O)N[C@@H](CCC(N)=O)C(=O)N[C@@H](CCCNC(=N)N)C(=O)N[C@@H](CCCCN)C(=O)N[C@@H](CCC(=O)O)C(=O)N[C@@H](CCCNC(=N)N)C(=O)N[C@@H](CCC(=O)O)C(=O)N[C@@H](CCC(N)=O)C(=O)N[C@@H](C)C(=O)N[C@@H](CCC(=O)O)C(=O)N[C@@H](CCCCN)C(=O)N[C@@H](CC(N)=O)C(=O)N[C@H](C(=O)N[C@@H](CCCNC(=N)N)C(=O)N[C@H](C(=O)N[C@@H](CC(C)C)C(=O)N[C@@H](CCC(=O)O)C(=O)N[C@@H](CCCNC(=N)N)C(=O)N[C@H](C(N)=O)C(C)C)[C@@H](C)CC)C(C)C)[C@@H](C)O)C(C)C)C(C)C
B5 yielded an EC50 [nM], 0% HSA of 0.01 nM.

B6: SEQ ID NO: 22 (peptide)
peptide: IVLSLDVPIKLK([AEEA-AEEA-γGlu-C18 diacid])QILLKQERQK[Aib]QRQKAEKNKQILAQV-NH2
modifications: N-terminus assumed
SMILES: CC[C@H](C)[C@H](N)C(=O)N[C@H](C(=O)N[C@@H](CC(C)C)C(=O)N[C@@H](CO)C(=O)N[C@@H](CC(C)C)C(=O)N[C@@H](CC(=O)O)C(=O)N[C@H](C(=O)N1CCC[C@H]1C(=O)N[C@H](C(=O)N[C@@H](CCCCN)C(=O)N[C@@H](CC(C)C)C(=O)N[C@@H](CCCCNC(=O)COCCOCCNC(=O)COCCOCCNC(=O)CC[C@H](NC(=O)CCCCCCCCCCCCCCCCC(=O)O)C(=O)O)C(=O)N[C@@H](CCC(N)=O)C(=O)N[C@H](C(=O)N[C@@H](CC(C)C)C(=O)N[C@@H](CC(C)C)C(=O)N[C@@H](CCCCN)C(=O)N[C@@H](CCC(N)=O)C(=O)N[C@@H](CCC(=O)O)C(=O)N[C@@H](CCCNC(=N)N)C(=O)N[C@@H](CCC(N)=O)C(=O)N[C@@H](CCCCN)C(=O)NC(C)(C)C(=O)N[C@@H](CCC(N)=O)C(=O)N[C@@H](CCCNC(=N)N)C(=O)N[C@@H](CCC(N)=O)C(=O)N[C@@H](CCCCN)C(=O)N[C@@H](C)C(=O)N[C@@H](CCC(=O)O)C(=O)N[C@@H](CCCCN)C(=O)N[C@@H](CC(N)=O)C(=O)N[C@@H](CCCCN)C(=O)N[C@@H](CCC(N)=O)C(=O)N[C@H](C(=O)N[C@@H](CC(C)C)C(=O)N[C@@H](C)C(=O)N[C@@H](CCC(N)=O)C(=O)N[C@H](C(N)=O)C(C)C)[C@@H](C)CC)[C@@H](C)CC)[C@@H](C)CC)C(C)C)C(C)C
Regarding B6, the EC50 [nM], 0% HSA was 0.12 nM.
